Where two headings read alike, the source gives them in different places.
How the values were obtained:
[1] = target: EBV gH/gL heterodimer, recombinant ectodomain (Epstein Barr virus); assay: BLI kinetics, pH 5.0, ligand CL59 Mab, analyte gH/gL; kon (1/Ms) x10^5
[2] = target: EBV gH/gL heterodimer, recombinant ectodomain (Epstein Barr virus); assay: BLI kinetics, pH 5.0, ligand CL59 Mab, analyte gH/gL; KA M^-1 x10^7
[3] = target: EBV gH/gL heterodimer, recombinant ectodomain (Epstein Barr virus); assay: BLI kinetics, pH 7.4, ligand CL59 Mab, analyte gH/gL; KA M^-1 x10^7
[4] = target: EBV gH/gL heterodimer, recombinant ectodomain (Epstein Barr virus); assay: BLI kinetics, pH 5.0, ligand CL59 Mab, analyte gH/gL; koff (1/s) x10^-3
[5] = target: EBV gH/gL heterodimer, recombinant ectodomain (Epstein Barr virus); assay: BLI kinetics, pH 7.4, ligand CL59 Mab, analyte gH/gL; koff (1/s) x10^-3
[6] = target: EBV gH/gL heterodimer, recombinant ectodomain (Epstein Barr virus); assay: BLI kinetics, pH 7.4, ligand CL59 Mab, analyte gH/gL; KD M x10^-9
[7] = target: EBV gH/gL heterodimer, recombinant ectodomain (Epstein Barr virus); assay: BLI kinetics, pH 7.4, ligand CL59 Mab, analyte gH/gL; kon (1/Ms) x10^5
[8] = target: EBV gH/gL heterodimer, recombinant ectodomain (Epstein Barr virus); assay: BLI kinetics, pH 5.0, ligand CL59 Mab, analyte gH/gL; KD M x10^-9
[9] = target: EBV gH/gL heterodimer, recombinant ectodomain (Epstein Barr virus); assay: BLI kinetics, pH 7.4, ligand CL40 Mab, analyte gH/gL; KD M x10^-9
[10] = target: EBV gH/gL heterodimer, recombinant ectodomain (Epstein Barr virus); assay: BLI kinetics, pH 7.4, ligand CL40 Mab, analyte gH/gL; KA M^-1 x10^7
[11] = target: EBV gH/gL heterodimer, recombinant ectodomain (Epstein Barr virus); assay: BLI kinetics, pH 5.0, ligand CL40 Mab, analyte gH/gL; KD M x10^-9
[12] = target: EBV gH/gL heterodimer, recombinant ectodomain (Epstein Barr virus); assay: BLI kinetics, pH 7.4, ligand CL40 Mab, analyte gH/gL; koff (1/s) x10^-3
[13] = target: EBV gH/gL heterodimer, recombinant ectodomain (Epstein Barr virus); assay: BLI kinetics, pH 7.4, ligand CL40 Mab, analyte gH/gL; kon (1/Ms) x10^5
[14] = target: EBV gH/gL heterodimer, recombinant ectodomain (Epstein Barr virus); assay: BLI kinetics, pH 5.0, ligand CL40 Mab, analyte gH/gL; KA M^-1 x10^7
[15] = target: EBV gH/gL heterodimer, recombinant ectodomain (Epstein Barr virus); assay: BLI kinetics, pH 5.0, ligand CL40 Mab, analyte gH/gL; kon (1/Ms) x10^5
[16] = target: EBV gH/gL heterodimer, recombinant ectodomain (Epstein Barr virus); assay: BLI kinetics, pH 5.0, ligand CL40 Mab, analyte gH/gL; koff (1/s) x10^-3
[17] = target: gH/gL on EBV virions (Epstein Barr virus) (UniProt P03231); assay: cell-based or functional assay
[18] = target: gp350 on EBV virions (Epstein Barr virus) (UniProt P03200); assay: cell-based or functional assay
[19] = target: EBV gH/gL heterodimer, recombinant ectodomain (Epstein Barr virus); assay: BLI kinetics, pH 7.4, ligand gH/gL, analyte gp42 T175A; KD M x10^-9
[20] = target: EBV gH/gL heterodimer, recombinant ectodomain (Epstein Barr virus)
[21] = target: EBV gH/gL heterodimer, recombinant ectodomain (Epstein Barr virus); assay: BLI kinetics, pH 7.4, ligand gH/gL, analyte gp42; KA M^-1 x10^7
[22] = target: EBV gH/gL heterodimer, recombinant ectodomain (Epstein Barr virus); assay: BLI kinetics, pH 7.4, ligand gH/gL, analyte gp42; kon (1/Ms) x10^5
[23] = target: EBV gH/gL heterodimer, recombinant ectodomain (Epstein Barr virus); assay: BLI kinetics, pH 7.4, ligand gH/gL, analyte gp42; koff (1/s) x10^-3
[24] = target: EBV gH/gL heterodimer, recombinant ectodomain (Epstein Barr virus); assay: BLI kinetics, pH 7.4, ligand gH/gL, analyte gp42; KD M x10^-9

CL59 (antibody)
kon [1]: 337000 M⁻¹ s⁻¹
Ka [2]: 1.81e+08 M⁻¹
Ka [3]: 1.57e+08 M⁻¹
koff [4]: 0.00186 s⁻¹
koff [5]: 0.0028 s⁻¹
Kd [6]: 6.39 nM
kon [7]: 438000 M⁻¹ s⁻¹
Kd [8]: 5.52 nM

CL40 (antibody)
Kd [9]: 6.77 nM
Ka [10]: 1.48e+08 M⁻¹
Kd [11]: 5.99 nM
koff [12]: 0.00318 s⁻¹
kon [13]: 469000 M⁻¹ s⁻¹
Ka [14]: 1.67e+08 M⁻¹
kon [15]: 594000 M⁻¹ s⁻¹
koff [16]: 0.00356 s⁻¹
concentration reducing B cell (Raji) infection to 50% [17]: 14.6 µg/mL
fold decrease in fold potency against AMMO1, B cell (Raji) infection [17]: 100 fold

72A1 (antibody)
neutralization of B95.8/F EBV infection of B (Raji) cells, IC50 [18]: 0.08 µg/mL

gp42 T175A, recombinant ectodomain
Kd [19]: 2.06 nM
Ka [20]: 4.85e+08 M⁻¹
koff [20]: 0.000299 s⁻¹
kon [20]: 145000 M⁻¹ s⁻¹

EBV gp42, recombinant ectodomain
Ka [21]: 7.84e+08 M⁻¹
kon [22]: 224000 M⁻¹ s⁻¹
koff [23]: 0.000286 s⁻¹
Kd [24]: 1.28 nM

— patent US20200164059A1
